Reference: PMC12378428

Biological target: hSOX2-HMG (Homo sapiens, UniProt P48431)
Test: EMSA

B1: P1/P2 SOX2 binding DNA (dsDNA)
DNA 1: GGAAACAATGGA
DNA 2: TCCATTGTTTCC
Kd: ~610 nM
